Here are results for one molecule from patent US20160280794A1 (published 2016).

The term EC50 denotes the concentration needed to bring the measured effect to its halfway point. Lower therefore signals an effect from little substance.

The experiment deals with T1, CD20 (human, UniProt P11836 1-297).
T1 chain: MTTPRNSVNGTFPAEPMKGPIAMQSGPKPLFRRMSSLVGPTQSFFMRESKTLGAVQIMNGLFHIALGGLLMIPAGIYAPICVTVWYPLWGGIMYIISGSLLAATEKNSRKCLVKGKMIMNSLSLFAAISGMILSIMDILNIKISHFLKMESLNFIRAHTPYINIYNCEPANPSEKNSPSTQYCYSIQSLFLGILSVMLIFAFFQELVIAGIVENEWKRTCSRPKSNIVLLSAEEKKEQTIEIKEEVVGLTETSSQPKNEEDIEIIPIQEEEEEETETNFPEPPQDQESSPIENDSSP
Description: FACS binding; Ramos cells. (In flow cytometry, cells or beads pass a laser one at a time.)

B1: Rituximab (antibody)
chain 1: not shown
chain 2: QIVLSQSPAILSASPGEKVTMTCRASSSVSYIHWFQQKPGSSPKPWIYATSNLASGVPVRFSGSGSGTSYSLTISRVEAEDAATYYCQQWTSNPPTFGGGTKLEIKRTVAAPSVFIFPPSDEQLKSGTASVVCLLNNFYPREAKVQWKVDNALQSGNSQESVTEQDSKDSTYSLSSTLTLSKADYEKHKVYACEVTHQGLSSPVTKSFNRGEC
Consider B1, for which the EC50 is 1.13 µg/mL.
